Reference: patent US20250027945A1 (University of California, published 2025)

Columns and labels:
[1] = target: T1, human RYK on the surface of human tumor cell lines (human, UniProt P34925 46-607); assay: flow cytometry, MCF7 cells (breast), 5 ug/ml 2-D11-Alexa647; line unmarked (no staining)
T1 construct: whole, on cells; Endogenous expression
Experimental: (§1) Table 1 provides the flow cytometry data on various cancer cell lines stained with fluorochrome-conjugated 2-D11, as depicted in FIG. 8. The name of each cell line is listed in the first column and the tissue of origin is listed in the second column. Binding of the 2-D11 mAb to human RYK was assessed by flow cytometric staining and analysis by staining on ice for 20 minutes with 5 μg/ml of 2-D11 anti-human RYK-Alexa647 conjugated mAb or equal amounts of isotype matched control mAb, washed, and analyzed. The median fluorescence intensity (MFI) of 2-D11 stained cells is listed in the middle column and the MFI of isotype control stained cells are listed in the in the adjacent column. Cell lines were scored as “++”, “+”, or neg (unmarked with “+”) lines based on the ratio of median fluorescence intensity (MFI) of stained cells relative to the MFI of isotype control stained cells (MFIR).
(§2) The name of each cell line is listed in the first column and the tissue of origin is listed in the second column. Binding of the 2-D11 mAb to human RYK was assessed by flow cytometric staining and analysis by staining on ice for 20 minutes with 5 μg/ml of 2-D11 anti-human RYK-Alexa647 conjugated mAb or equal amounts of isotype matched control mAb, washed and analyzed. […]

[2] = target: T1, human RYK on the surface of human tumor …; assay: flow cytometry, T24 cells (bladder), 5 ug/ml 2-D11-Alexa647
Experimental: as §1, §2

[3] = target: T1, human RYK on the surface of human tumor …; assay: flow cytometry, SKBR3 cells (breast), 5 ug/ml 2-D11-Alexa647
Experimental: as §1, §2

[4] = target: T1, human RYK on the surface of human tumor …; assay: flow cytometry, SW620 cells (colon), 5 ug/ml 2-D11-Alexa647; line unmarked (no staining)
Experimental: as §1, §2

[5] = target: T2, recombinant human RYK protein used in KinExA (human, UniProt P34925 46-227, limits assumed); assay: KinExA 3200, soluble RYK competitor against RYK-coated particles
T2 construct: Legend prints 'RYK2'; also called recombinant human RYK2 protein
T2 sequence (P34925 46-227 limits assumed, form in doubt): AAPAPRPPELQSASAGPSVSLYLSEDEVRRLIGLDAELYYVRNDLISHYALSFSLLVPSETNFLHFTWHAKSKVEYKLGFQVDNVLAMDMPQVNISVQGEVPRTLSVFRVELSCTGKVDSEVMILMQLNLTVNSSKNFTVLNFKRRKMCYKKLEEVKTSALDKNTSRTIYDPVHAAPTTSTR
Experimental: Analysis was performed using a KinExA 3200 instrument. FIG. 7A: The proportion of anti-human RYK mAb bound to particles coated with RYK protein (y-axis) in the presence of increasing molar (M) concentration of soluble RYK competitor (x-axis) is shown for 2-D11 mAb (upper left panel) and 7-H10 mAb (lower left panel).

[6] = target: T1, human RYK on the surface of human tumor …; assay: flow cytometry, JURKAT cells (T-cell ALL), 5 ug/ml 2-D11-Alexa647; line unmarked (no staining)
Experimental: as §1, §2

[7] = target: T1, human RYK on the surface of human tumor …; assay: flow cytometry, HS683 cells (brain), 5 ug/ml 2-D11-Alexa647
Experimental: as §1, §2

[8] = target: T1, human RYK on the surface of human tumor …; assay: flow cytometry, RAJI cells (Burkitt NHL), 5 ug/ml 2-D11-Alexa647; line unmarked (no staining)
Experimental: as §1, §2

[9] = target: T1, human RYK on the surface of human tumor …; assay: flow cytometry, U937 cells (monocyte cancer), 5 ug/ml 2-D11-Alexa647; line unmarked (no staining)
Experimental: as §1, §2

[10] = target: T1, human RYK on the surface of human tumor …; assay: flow cytometry, CAPAN-2 cells (pancreas), 5 ug/ml 2-D11-Alexa647; line unmarked (no staining)
Experimental: as §1, §2

[11] = target: T1, human RYK on the surface of human tumor …; assay: flow cytometry, SW948 cells (colon), 5 ug/ml 2-D11-Alexa647; line unmarked (no staining)
Experimental: as §1, §2

[12] = target: T1, human RYK on the surface of human tumor …; assay: flow cytometry, PC3 cells (prostate), 5 ug/ml 2-D11-Alexa647; line unmarked (no staining)
Experimental: as §1, §2

T1 sequence (P34925 46-607 limits assumed, form in doubt): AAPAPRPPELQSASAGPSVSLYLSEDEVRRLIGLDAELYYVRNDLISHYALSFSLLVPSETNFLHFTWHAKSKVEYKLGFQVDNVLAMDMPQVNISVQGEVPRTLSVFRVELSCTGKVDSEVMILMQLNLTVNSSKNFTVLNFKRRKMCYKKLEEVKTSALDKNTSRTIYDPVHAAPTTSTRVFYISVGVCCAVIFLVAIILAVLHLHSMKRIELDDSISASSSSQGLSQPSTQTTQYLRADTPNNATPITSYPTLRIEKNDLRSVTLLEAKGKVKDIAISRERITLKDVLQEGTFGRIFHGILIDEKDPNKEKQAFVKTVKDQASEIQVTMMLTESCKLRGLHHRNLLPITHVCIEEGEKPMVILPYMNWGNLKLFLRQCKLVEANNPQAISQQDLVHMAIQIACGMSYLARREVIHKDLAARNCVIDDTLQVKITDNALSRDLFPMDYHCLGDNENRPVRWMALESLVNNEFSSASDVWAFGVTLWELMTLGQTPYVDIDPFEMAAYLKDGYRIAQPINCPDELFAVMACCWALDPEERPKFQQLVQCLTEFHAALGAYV

B1: 2-D11 anti-human RYK mAb (antibody, V domains shown)
VH: QVQLKESGPGLVAPSQSLSITCSVSGFSLNDYGVNWVRQPPGKDLEWLGMIWGDGVTEYNSTLKSRLSISKDNSKSQVFLKMNNLQTEDTARYYCVRQGSGVWFAHWGQGTLVSVSS
VL: DVLVTQTPLSLPVSLGDQASISCRSSQTIVHSNGNTYLEWYLQKPGQSPKLLIYKVSNRFSGVPDRFSGSGSGTDFTLKISRVEAEDLGIYYCFQGSHVPYTFGGGTKLEIK
notes: Mouse hybridoma mAb, kappa light chain, detected with anti-mouse IgG; also called mAb 2-D11; 2-D11 anti-human RYK-Alexa647 conjugated mAb
[1]
  MFIR (MFI ratio to isotype control): 1.4
[2]
  MFIR (MFI ratio to isotype control): 1.6
[3]
  MFIR (MFI ratio to isotype control): 1.6
[4]
  MFIR (MFI ratio to isotype control): 1.2
[5]
  Kd: 513 pM
[6]
  MFIR (MFI ratio to isotype control): 1.1
[7]
  MFIR (MFI ratio to isotype control): 2.5
[8]
  MFIR (MFI ratio to isotype control): 1
[9]
  MFIR (MFI ratio to isotype control): 1.2
[10]
  MFIR (MFI ratio to isotype control): 1.3
[11]
  MFIR (MFI ratio to isotype control): 1.1
[12]
  MFIR (MFI ratio to isotype control): 1.2
